The target of assay [1] is human CD25 (human IL-2 receptor) on human CD25+ T-cell lymphoma cells HUT 102/6TG (human) (UniProt P01589). The experiment in a line: cell-based or functional assay.
The target is the same in assay [2]. The experiment in a line: flow cytometry on HUT 102/6TG cells. A general note: Flow cytometry measures light scatter and fluorescence of single cells or particles in a stream.
For assay [3] the target is unchanged.

Chain of human CD25 (human IL-2 receptor) on human CD25+ T-cell lymphoma cells HUT 102/6TG (human) (P01589 22-272): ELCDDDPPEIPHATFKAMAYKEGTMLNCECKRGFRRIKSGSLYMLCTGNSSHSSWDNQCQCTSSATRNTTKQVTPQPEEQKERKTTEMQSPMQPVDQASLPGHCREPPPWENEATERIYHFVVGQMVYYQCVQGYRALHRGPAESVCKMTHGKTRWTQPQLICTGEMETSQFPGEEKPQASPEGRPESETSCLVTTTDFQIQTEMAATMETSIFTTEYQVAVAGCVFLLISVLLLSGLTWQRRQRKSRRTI

Turning to “bivalent human IL-2 fusion toxin (DT390-bi-hIL-2-6xHis)”, the IC50 of protein synthesis inhibition (3H-leucine) in HUT 102/6TG cells in assay [1] was 0.0002 nM.
In turn, “bivalent human IL-2 fusion toxin (DT390-bi-hIL-2-6xHis) (other; other documents disagree on this pair)” registered an affinity against the monovalent isoform (DT390-hIL-2) in assay [2] of 2 logs. Further, in assay [3], the equilibrium dissociation constant (Kd) was 0.21 nM.
The substance “monovalent human IL-2 fusion toxin (DT390-hIL-2-6xHis)” displayed an IC50 of protein synthesis inhibition (3H-leucine) in HUT 102/6TG cells in assay [1] of 0.02 nM.
For the substance “monovalent human IL-2 fusion toxin (DT390-hIL-2-6xHis) (other; other documents disagree on this pair)”, in assay [3], the dissociation constant (Kd) was 15.9 nM.

The Kd is the constant that tells how readily two partners part at equilibrium.

The values are drawn from patent US20160030526A1.
